According to paper PMC8096230:

B1: GRE2 (Eif4ebp2 GBSe2) (dsDNA)
DNA 1: AGGCTGGGTACACAGAGTGCCCTGCC
DNA 2: GGCAGGGCACTCTGTGTACCCAGCCT
B2: GRE1 (Eif4ebp2 GBSe1) (dsDNA)
DNA 1: TGAGTCAGGACTGAGTGTTCTCACGG
DNA 2: CCGTGAGAACACTCAGTCCTGACTCA
B3: GRE (Gilz) / GREgilz (dsDNA)
DNA 1: TGAGTCAGAACATTGGGTTCCCACGG
DNA 2: CCGTGGGAACCCAATGTTCTGACTCA
B4: GRE2 mut (dsDNA)
DNA 1: AGGCTGGGTATACAGAATGCCCTGCC
DNA 2: GGCAGGGCACTCTGTGTACCCAGCCT
B5: NSP (non-specific probe) (dsDNA)
DNA 1: TGGGCTGAGGCTGGGTGTGGCCCGAC
DNA 2: GTCGGGCCACACCCAGCCTCAGCCCA
B6: GRE1 mut (dsDNA)
DNA 1: TGAGTCAGGATTGAGTATTCTCACGG
DNA 2: CCGTGAGAACACTCAGTCCTGACTCA

The binders below were run against T1, GR DBD (human, UniProt P04150 412-506) (assay: MST).
T1 sequence (P04150 412-506): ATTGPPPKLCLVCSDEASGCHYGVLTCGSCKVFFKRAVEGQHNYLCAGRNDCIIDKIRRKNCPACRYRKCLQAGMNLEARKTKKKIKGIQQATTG

| Binder | Kd [nM] |
| --- | --- |
| B1 | 204 |
| B2 | 195 |
| B3 | 154 |

What follows are binders tested against T1, GR DBD (assay: EMSA).

| Binder | binding result |
| --- | --- |
| B4 | no binding |
| B5 | no binding |
| B6 | no binding |
